{"source": "paper PMC8932913", "molecular_target": "recombinant Hbl B’ of B. cereus strain F837/76 (Bacillus cereus strain F837/76)", "test": "SPR; Biacore S200; rHbl B’ amine-coupled (350 RU) on a CM5 chip; rHbl L1, L2 or B injected at 7.8125 nM to 2 µM, 30 µl/min, 20°C; running buffer PBS, 1 mM DTT, 0.005% Tween 20; 1:1 binding model; three experiments"}
{"substance": "recombinant Hbl L1 (natural protein)", "values": [{"measurement": "Kd", "value": 131, "unit": "nM"}]}
